Measurements: PMC3166722 (2011)

T1: band 3cyt cytoplasmic domain (Homo sapiens, UniProt P02730)
T1 chain: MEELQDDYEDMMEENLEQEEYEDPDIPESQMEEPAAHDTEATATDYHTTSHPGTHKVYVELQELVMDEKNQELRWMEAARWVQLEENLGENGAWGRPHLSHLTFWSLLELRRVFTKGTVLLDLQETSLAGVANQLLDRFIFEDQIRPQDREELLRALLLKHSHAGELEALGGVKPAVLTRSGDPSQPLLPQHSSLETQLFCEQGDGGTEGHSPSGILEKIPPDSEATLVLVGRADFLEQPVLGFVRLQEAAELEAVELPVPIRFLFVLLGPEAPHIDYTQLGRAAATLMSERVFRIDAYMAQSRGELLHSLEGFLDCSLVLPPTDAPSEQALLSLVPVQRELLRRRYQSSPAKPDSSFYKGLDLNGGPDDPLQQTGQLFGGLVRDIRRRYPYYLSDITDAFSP

T2: GPCcyt cytoplasmic domain (Homo sapiens, UniProt P04921)
T2 chain: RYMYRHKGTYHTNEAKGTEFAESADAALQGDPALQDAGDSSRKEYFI

B1: 4.1R135 (protein)
chain: MTTEKSLVTEAENSQHQQKEEGEEAINSGQQEPQQEESCQTAAEGDNWCEQKLKASNGDTPTHEDLTKNKERTSESRGLSRLFSSFLKRPKSQVSEEEGKEVESDKEKGEGGQKEIEFGTSLDEEIILKAPIAAPEPELKTDPSLDLHSLSSAETQPAQEELREDPDFEIKEGEGLEECSKIEVKEESPQSKAETELKASQKPIRKHRNMHCKVSLLDDTVYECVVEKHAKGQDLLKRVCEHLNLLEEDYFGLAIWDNATSKTWLDSAKEIKKQVRGVPWNFTFNVKFYPPDPAQLTEDITRYYLCLQLRQDIVAGRLPCSFATLALLGSYTIQSELGDYDPELHGVDYVSDFKLAPNQTKELEEKVMELHKSYRSMTPAQADLEFLENAKKLSMYGVDLHKAKDLEGVDIILGVCSSGLLVYKDKLRINRFPWPKVLKISYKRSSFFIKIRPGEQEQYESTIGFKLPSYRAAKKLWKVCVEHHTFFRLTSTDTIPKSKFLALGSKFRYSGRTQAQTRQASALIDRPAPHFERTASKRASRSLDGAAAVDSADRSPRPTSAPAITQGQVAEGGVLDASAKKTVVPKAQKETVKAEVKKEDEPPEQAEPEPTEAWKVEKTHIEVTVPTSNGDQTQKLAEKTEDLIRMRKKKRERLDGENIYIRHSNLMLEDLDKSQEEIKKHHASISELKKNFMESVPEPRPSEWDKRLSTHSPFRTLNINGQIPTGEGPPLVKTQTVTISDNANAVKSEIPTKDVPIVHTETKTITYEAAQTDDNSGDLDPGVLLTAQTITSETPSSTTTTQITKTVKGGISETRIEKRIVITGDADIDHDQVLVQAIKEAKEQHPDMSVTKVVVHQETEIADE
modifications: EGTA (no Ca2+)
B2: 4.1R135 (protein)
chain: B1 chain
B3: 4.1R135 (protein)
chain: B1 chain
modifications: Ca2+

Legend:
Test in all cases: resonant mirror detection (IAsys)
CaM = CaM (Homo sapiens, UniProt P0DP23)
[1] = molecular target: T1, band 3cyt cytoplasmic domain
[2] = molecular target: T2, GPCcyt cytoplasmic domain

Binder	Kd (CaM) [nM]	Kd [1] [nM]	Kd [2] [nM]
B1	11700	–	–
B2	–	23	1330
B3	78	–	–
